Values quoted from earlier work in paper PMC5807066.
Values joined by “and” are separate entries in the source; they are usually repeats but may differ in a detail not shown here. Equal entries are not always repeated. Where two headings read alike, the source gives them in different places.

Columns and labels:
[1] = molecular target: SecA:SecYEG complex (Escherichia coli) (UniProt C4ZRJ3)
[2] = molecular target: SecA (Escherichia coli) (UniProt P10408)
[3] = molecular target: MBP (unfolded) (Escherichia coli) [MBP: P0AEX9]
[4] = molecular target: SecA (Escherichia coli) (UniProt P10408); remark: listed apart in the source
[5] = molecular target: SecA (Escherichia coli) (UniProt P10408); remark: listed apart in the source

Chain of SecA (P10408 whole entry): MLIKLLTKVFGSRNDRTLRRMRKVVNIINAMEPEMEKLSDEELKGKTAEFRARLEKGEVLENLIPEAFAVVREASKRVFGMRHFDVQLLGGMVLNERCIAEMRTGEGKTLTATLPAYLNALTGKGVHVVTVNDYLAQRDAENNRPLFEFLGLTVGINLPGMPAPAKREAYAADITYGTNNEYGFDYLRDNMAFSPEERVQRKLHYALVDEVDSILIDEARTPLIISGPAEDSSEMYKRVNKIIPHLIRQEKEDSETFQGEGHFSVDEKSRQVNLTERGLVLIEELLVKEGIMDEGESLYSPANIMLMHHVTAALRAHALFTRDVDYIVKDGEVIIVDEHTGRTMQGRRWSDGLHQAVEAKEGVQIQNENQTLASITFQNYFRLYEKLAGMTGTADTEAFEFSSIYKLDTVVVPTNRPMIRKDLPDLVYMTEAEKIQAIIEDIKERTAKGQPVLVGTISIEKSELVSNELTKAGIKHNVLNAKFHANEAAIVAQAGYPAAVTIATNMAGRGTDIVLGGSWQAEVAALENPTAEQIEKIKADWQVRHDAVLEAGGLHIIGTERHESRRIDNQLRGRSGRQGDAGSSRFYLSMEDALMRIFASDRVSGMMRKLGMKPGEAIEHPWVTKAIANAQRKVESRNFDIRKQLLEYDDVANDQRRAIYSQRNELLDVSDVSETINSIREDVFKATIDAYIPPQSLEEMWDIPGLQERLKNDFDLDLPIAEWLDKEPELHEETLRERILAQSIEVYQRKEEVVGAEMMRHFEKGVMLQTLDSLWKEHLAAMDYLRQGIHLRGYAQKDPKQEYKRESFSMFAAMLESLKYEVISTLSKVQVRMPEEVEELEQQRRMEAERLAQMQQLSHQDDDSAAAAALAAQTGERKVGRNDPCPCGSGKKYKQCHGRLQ

In the case of PhoA precursor (from UniProt P00634), the Kd [1] is listed as 0.23 µM.
For SecA (from UniProt P10408), the Kd [2] is listed as 0.1 µM and 1 µM.
In the case of SecB (from UniProt P0AG86), the Kd [3] is listed as 0.03 µM, the Kd [4] is listed as 2 µM and the Kd [5] is listed as 4 µM.
